Experimental data reported in publication PMC4720288.

Biological target: human MALT1_(Casp-Ig3)(338–719) (human) (UniProt Q9UDY8)
Experiment: crystal structure; in-house X-ray structure of apo MALT1_(Casp-Ig3), data not published

For “human MALT1_(Casp-Ig3)(338–719) (from UniProt Q9UDY8 338-719) (domain or fragment)”, which stoichiometry N is on record?
The stoichiometry N was 2.
